According to paper PMC2770657:
Substitutions are numbered along the chain they refer to. Where two headings read alike, the source gives them in different places.

T1: hPifHD (human Pif1 helicase domain) (Homo sapiens, UniProt Q9H611 206-620)
T1 sequence: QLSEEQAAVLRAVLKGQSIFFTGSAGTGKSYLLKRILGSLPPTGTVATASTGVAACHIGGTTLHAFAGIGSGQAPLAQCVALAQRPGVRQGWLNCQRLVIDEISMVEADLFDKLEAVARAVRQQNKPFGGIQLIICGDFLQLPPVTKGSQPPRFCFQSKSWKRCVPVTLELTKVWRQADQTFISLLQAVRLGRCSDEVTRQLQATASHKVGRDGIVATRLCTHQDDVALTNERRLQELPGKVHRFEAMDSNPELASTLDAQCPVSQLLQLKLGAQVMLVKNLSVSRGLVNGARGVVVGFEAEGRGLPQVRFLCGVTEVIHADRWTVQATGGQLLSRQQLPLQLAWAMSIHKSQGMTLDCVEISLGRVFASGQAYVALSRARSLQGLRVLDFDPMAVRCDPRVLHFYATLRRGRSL

T2: hPifHD E307Q (Homo sapiens, UniProt Q9H611 206-620, E307Q)
T2 sequence: T1 sequence with E102Q

B1: T55 (ssDNA)
DNA: TTTTTTTTTTTTTTTTTTTTTTTTTTTTTTTTTTTTTTTTTTTTTTTTTTTTTTT

Assays:
Assay in all cases: EMSA
[1] = target: T1, hPifHD (human Pif1 helicase domain)
[2] = target: T1, hPifHD (human Pif1 helicase domain); remark: listed apart in the source
hPifHD E307Q = target: T2, hPifHD E307Q

Binder	binding result [2]	also measured
TTTTTTTTTTTTTTTTTTTTTTTTT (ssDNA) [T25]		binding result [1]: no binding
TTTTTTTTTTTTTTTTTTTTTTTTTTTTTTTTTTTTTTTTTTTTTTTTTT (ssDNA) [T50]	binds	
TTTTTTTTTTTTTTTTTTTTTTTTTTTTTTTTTTT (ssDNA) [T35]	binds	
B1		binding result (hPifHD E307Q): binds
